The values that follow come from paper PMC6765112, “Specificity of MYB interactions relies on motifs in ordered and disordered contexts” (Nucleic Acids Research, 2019).

B3: MYC4 N-terminal domain (L55-N253) (domain or fragment, Arabidopsis thaliana, UniProt O49687 55-253, looked up)
chain: LPQVNEDNLQQRLQALIEGANENWTYAVFWQSSHGFAGEDNNNNNTVLLGWGDGYYKGEEEKSRKKKSNPASAAEQEHRKRVIRELNSLISGGVGGGDEAGDEEVTDTEWFFLVSMTQSFVKGTGLPGQAFSNSDTIWLSGSNALAGSSCERARQGQIYGLQTMVCVATENGVVELGSSEIIHQSSDLVDKVDTFFNFN
notes: MYC4, Arabidopsis thaliana, N-terminal domain with the JID, residues L55-N253 (AA55-253); recombinant protein of 22.7 kDa; expressed from pET52u; source: E. coli BL21(DE3), purified (HisTrap HP IMAC, dialysed to PBS pH 7.4 with 1 mM DTT); not shown: 6xHis, C-terminal, kept

In assay [1] the target is T1, MYC4 N-terminal domain (L55-N253) (Arabidopsis thaliana, UniProt O49687 55-253).
T1 chain: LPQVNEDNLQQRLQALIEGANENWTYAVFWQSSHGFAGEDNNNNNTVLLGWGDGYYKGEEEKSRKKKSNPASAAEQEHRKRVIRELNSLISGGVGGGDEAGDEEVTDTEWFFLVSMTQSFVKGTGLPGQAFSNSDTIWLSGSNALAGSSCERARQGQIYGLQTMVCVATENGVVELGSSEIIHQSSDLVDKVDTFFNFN
In words: BLI. (In general: Biolayer interferometry detects binding as a change in optical thickness at a sensor tip.)

Assay [2] addresses B3. In words: BLI; biotinylated peptide (1 μM) immobilised on streptavidin biosensors; MYC4Nt 130 to 0.1 μM; PBS pH 7.4, 1 mM DTT, 0.05% bovine serum albumin; BLItz; equilibrium responses fitted to a Hill equation. The note with it: both partners purified.
Assay [3] deals with GL3. In words: Split-ubiquitin assay, GL3 as bait. Format: cell-based, Arabidopsis thaliana. The note with it: yeast, SD-AHLW growth. As to the method:
The rapamycin-compatible yeast strain NMY51 TOR1-1 Δfpr1 ([35]) was transformed according to DUALhunter™ kit instructions (Dualsystems biotech). Briefly, overnight 2×YPAD cultures were diluted to OD600 = 0.2, and incubated at 30°C, 150 RPM for 4–6 h in 2×YPAD, before harvesting the cells by centrifugation at 700 g for 5 min. The cells were washed with H2O, then 0.1 M LiOAc, before resuspending in 0.1 M LiOAc with 15% glycerol. The competent cells were then aliquoted and stored at −80°C until transformation. For double transformation with bait and prey plasmids, competent cells were thawed on ice, and mixed with transformation mix (240 μl 50% PEG-3350, 35 μl 1 M LiOAc and 25 μl 2 mg/ml ssDNA per transformation) and 200 ng of each plasmid, before being exposed to a 42°C heat shock in a water bath for 45 min. The cells were then chilled on ice for a few minutes, sedimented by centrifugation (3000 g, 1 min), resuspended in sterile H2O, plated on SD-LW plates and grown at 30°C for 2–3 days.
For drop tests, cells from three individual colonies of each bait/prey combination were grown overnight in liquid SD-LW media. Next day, culture densities were normalized to OD600 = 0.05, dilution series (OD600 = 0.05, OD600 = 0.005, OD600 = 0.0005 and OD600 = 0.00005) were spotted on square plates (SD-LW, SD-AHLW and SD-AHLW+Rapa) and grown for 2 days at 30°C before taking pictures.
To identify interaction sites mediating specific MYB–MYC complex formation, we selected two TFs from each family. These were MYB28 and MYB29 from MYB subgroup 12, and two of their partner bHLH TFs, MYC3 and MYC4. To define the region mediating the interactions we applied a chemically inducible dimerization split-ubiquitin system ([35]). […] This is used as an in-built positive control for correct expression and functionality of the prey fusion protein and thereby reduces the incidence of false negatives.

The test system of assay [4] is GL3. As to conditions: ref [32]; cited from earlier work. An excerpt:
To identify interaction sites mediating specific MYB–MYC complex formation, we selected two TFs from each family. These were MYB28 and MYB29 from MYB subgroup 12, and two of their partner bHLH TFs, MYC3 and MYC4. To define the region mediating the interactions we applied a chemically inducible dimerization split-ubiquitin system ([35]). […] As controls, we included the interaction between GL3 and MYB75, where a fragment c ...

Assay [5] deals with T2, L190V-MIM peptide (F180-G201 of MYB29, L190V) (Arabidopsis thaliana, UniProt Q9FLR1 180-201, L190V, biotin on the N-terminus).
T2 construct: MYB29, Arabidopsis thaliana, 22 residues F180-G201; source: synthetic peptide (TAG Copenhagen A/S)
T2 peptide (looked up): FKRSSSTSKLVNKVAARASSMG
In words: BLI; biotinylated peptide (1 μM) immobilised on streptavidin biosensors; MYC4Nt 130 to 0.1 μM; PBS pH 7.4, 1 mM DTT, 0.05% bovine serum albumin; BLItz; equilibrium responses fitted to a Hill equation. The note with it: both partners purified.

Where two headings read alike, the source gives them in different places. Ends that are not written are not given here. * marks the point of attachment. Biotin = O=C1N[C@H]2[C@H](CS[C@H]2CCCCC(=O)*)N1

B1: WT-MIM peptide (F180-G201 of MYB29) (peptide, UniProt Q9FLR1 180-201, looked up)
peptide: Biotin-FKRSSSTSKLLNKVAARASSMG
notes: source: synthetic peptide (TAG Copenhagen A/S)
Turning to B1, the values for the Kd in assay [1] and in assay [2] were 1900 nM and 2700 ± 800 nM, respectively.

B2: non-MYB region of MYB75: non-MYB region of MYB75 (residues K110-D248) (protein)
chain: KKHEPCCKIKMKKRDITPIPTTPALKNNVYKPRPRSFTVNNDCNHLNAPPKVDVNPPCLGLNINNVCDNSIIYNKDKKKDQLVNNLIDGDNMWLEKFLEESQEVDILVPEATTTEKGDTLAFDVDQLWSLFDGETVKFD
modifications: left off: NubG and FRB (from the vector pFRB), end not stated, kept
Take B2: the “interaction with GL3 (in words)” value in the assay on GL3 [3] is “does not”; with GL3 [4], “unable to interact”. With B3, the “fold weaker affinity than the WT-MIM peptide” value in assay [5] is approximately 10 fold.

B4: MYB75 DBD: fragment comprising the MYB DBD (residues M1-P114) (protein, UniProt Q9FE25 1-114, looked up, fragment)
chain: MEGSSKGLRKGAWTTEEDSLLRQCINKYGEGKWHQVPVRAGLNRCRKSCRLRWLNYLKPSIKRGKLSSDEVDLLLRLHRLLGNRWSLIAGRLPGRTANDVKNYWNTHLSKKHEP
As to B4, the results for the “interaction with GL3 (in words)” value in the assay on GL3 [3] and with GL3 [4] were “results in growth on SD-AHLW plates” and “sufficient for this interaction”, respectively.
